Measurements from the supplement of paper PMC5998384.

Legend:
HeLa Kyoto [1] = assay: solubility change mitosis vs G1/S (difference of NP-40 vs SDS log2 ratios) (log2 ratio difference); higher = more soluble in mitosis
HeLa Kyoto [2] = assay: solubility in G1/S (NP-40 vs SDS abundance) (log2 ratio); higher = more soluble; conditions: cell cycle stage: G1/S
HeLa Kyoto [3] = assay: melting temperature (median over replicates), in situ; higher = more thermally stable
HeLa Kyoto [4] = assay: thermal stability score vs G1/S (z-score of summed log2 fold changes over temperatures); higher = more thermally stable than in G1/S
[5] = cell cycle stage: early G1 (4.5 h after nocodazole release)
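For melting temperature (median over replicates), in situ in this document: HeLa Kyoto cells synchronized by double thymidine or nocodazole block, proteins quantified by TMT10plex mass spectrometry, three independent biological replicates.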
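For solubility change mitosis vs G1/S (difference of NP-40 vs SDS log2 ratios) in this document: synchronized HeLa Kyoto cells (double thymidine block for G1/S, nocodazole release for mitosis), protein amounts in NP-40 versus SDS lysates quantified by mass spectrometry, three biological replicates.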
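For solubility in G1/S (NP-40 vs SDS abundance) in this document: HeLa Kyoto cells arrested at G1/S by double thymidine block, proteins quantified by TMT10plex mass spectrometry in mild NP-40 versus SDS extracts, three biological replicates.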
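For thermal stability score vs G1/S (z-score of summed log2 fold changes over temperatures) in this document: synchronized HeLa Kyoto cells, proteins quantified by TMT10plex mass spectrometry, three biological replicates, mitosis taken 0.5 h after nocodazole release, G1/S directly after double thymidine block.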

Sequence	solubility change mitosis (log2) (HeLa Kyoto [1])	solubility in G1/S (log2) (HeLa Kyoto [2])	melting temperature (HeLa Kyoto [3]; cell cycle stage: G1/S) [°C]	melting temperature (HeLa Kyoto [3]; cell cycle stage: mitosis) [°C]	thermal stability score (HeLa Kyoto [4]; [5])	thermal stability score (HeLa Kyoto [4]; cell cycle stage: mitosis)
MELEDGVVYQEEPGGSGAVMSERVSGLAGSIYREFERLIGRYDEEVVKELMPLVVAVLENLDSVFAQDQEHQVELELLRDDNEQLITQYEREKALRKHAEEKFIEFEDSQEQEKKDLQTRVESLESQTRQLELKAKNYADQISRLEEREAELKKEYNALHQRHTEMIHNYMEHLERTKLHQLSGSDQLESTAHSRIRKERPISLGIFPLPAGDGLLTPDAQKGGETPGSEQWKFQELSQPRSHTSLKVSNSPEPQKAVEQEDELSDVSQGGSKATTPASTANSDVATIPTDTPLKEENEGFVKVTDAPNKSEISKHIEVQVAQETRNVSTGSAENEEKSEVQAIIESTPELDMDKDLSGYKGSSTPTKGIENKAFDRNTESLFEELSSAGSGLIGDVDEGADLLGMGREVENLILENTQLLETKNALNIVKNDLIAKVDELTCEKDVLQGELEAVKQAKLKLEEKNRELEEELRKARAEAEDARQKAKDDDDSDIPTAQRKRFTRVEMARVLMERNQYKERLMELQEAVRWTEMIRASRENPAMQEKKRSSIWQFFSRLFSSSSNTTKKPEPPVNLKYNAPTSHVTPSVKKRSSTLSQLPGDKSKAFDFLSEETEASLASRREQKREQYRQVKAHVQKEDGRVQAFGWSLPQKYKQVTNGQGENKMKNLPVPVYLRPLDEKDTSMKLWCAVGVNLSGGKTRDGGSVVGASVFYKDVAGLDTEGSKQRSASQSSLDKLDQELKEQQKELKNQEELSSLVWICTSTHSATKVLIIDAVQPGNILDSFTVCNSHVLCIASVPGARETDYPAGEDLSESGQVDKASLCGSMTSNSSAETDSLLGGITVVGCSAEGVTGAATSPSTNGASPVMDKPPEMEAENSEVDENVPTAEEATEATEGNAGSAEDTVDISQTGVYTEHVFTDPLGVQIPEDLSPVYQSSNDSDAYKDQISVLPNEQDLVREEAQKMSSLLPTMWLGAQNGCLYVHSSVAQWRKCLHSIKLKDSILSIVHVKGIVLVALADGTLAIFHRGVDGQWDLSNYHLLDLGRPHHSIRCMTVVHDKVWCGYRNKIYVVQPKAMKIEKSFDAHPRKESQVRQLAWVGDGVWVSIRLDSTLRLYHAHTYQHLQDVDIEPYVSKMLGTGKLGFSFVRITALMVSCNRLWVGTGNGVIISIPLTETNKTSGVPGNRPGSVIRVYGDENSDKVTPGTFIPYCSMAHAQLCFHGHRDAVKFFVAVPGQVISPQSSSSGTDLTGDKAGPSAQEPGSQTPLKSMLVISGGEGYIDFRMGDEGGESELLGEDLPLEPSVTKAERSHLIVWQVMYGNE [SPAG9]	-0.168	0.00549	51.3	50.6	0.672	0.413
MELPSGPGPERLFDSHRLPGDCFLLLVLLLYAPVGFCLLVLRLFLGIHVFLVSCALPDSVLRRFVVRTMCAVLGLVARQEDSGLRDHSVRVLISNHVTPFDHNIVNLLTTCSTPLLNSPPSFVCWSRGFMEMNGRGELVESLKRFCASTRLPPTPLLLFPEEEATNGREGLLRFSSWPFSIQDVVQPLTLQVQRPLVSVTVSDASWVSELLWSLFVPFTVYQVRWLRPVHRQLGEANEEFALRVQQLVAKELGQTGTRLTPADKAEHMKRQRHPRLRPQSAQSSFPPSPGPSPDVQLATLAQRVKEVLPHVPLGVIQRDLAKTGCVDLTITNLLEGAVAFMPEDITKGTQSLPTASASKFPSSGPVTPQPTALTFAKSSWARQESLQERKQALYEYARRRFTERRAQEAD [AUP1]	-0.102	-0.262	50.9	50.6	0.525	0.836
MELSQMSELMGLSVLLGLLALMATAAVARGWLRAGEERSGRPACQKANGFPPDKSSGSKKQKQYQRIRKEKPQQHNFTHRLLAAALKSHSGNISCMDFSSNGKYLATCADDRTIRIWSTKDFLQREHRSMRANVELDHATLVRFSPDCRAFIVWLANGDTLRVFKMTKREDGGYTFTATPEDFPKKHKAPVIDIGIANTGKFIMTASSDTTVLIWSLKGQVLSTINTNQMNNTHAAVSPCGRFVASCGFTPDVKVWEVCFGKKGEFQEVVRAFELKGHSAAVHSFAFSNDSRRMASVSKDGTWKLWDTDVEYKKKQDPYLLKTGRFEEAAGAAPCRLALSPNAQVLALASGSSIHLYNTRRGEKEECFERVHGECIANLSFDITGRFLASCGDRAVRLFHNTPGHRAMVEEMQGHLKRASNESTRQRLQQQLTQAQETLKSLGALKK [TBL2]	0.307	-0.571	51	50.4	0.379	-0.532
MELTIFILRLAIYILTFPLYLLNFLGLWSWICKKWFPYFLVRFTVIYNEQMASKKRELFSNLQEFAGPSGKLSLLEVGCGTGANFKFYPPGCRVTCIDPNPNFEKFLIKSIAENRHLQFERFVVAAGENMHQVADGSVDVVVCTLVLCSVKNQERILREVCRVLRPGGAFYFMEHVAAECSTWNYFWQQVLDPAWHLLFDGCNLTRESWKALERASFSKLKLQHIQAPLSWELVRPHIYGYAVK [METTL7A]	-0.0939	-0.294	57.6	56.8	0.77	-0.471
MEMGRRIHLELRNRTPSDVKELVLDNSRSNEGKLEGLTDEFEELEFLSTINVGLTSIANLPKLNKLKKLELSDNRVSGGLEVLAEKCPNLTHLNLSGNKIKDLSTIEPLKKLENLKSLDLFNCEVTNLNDYRENVFKLLPQLTYLDGYDRDDKEAPDSDAEGYVEGLDDEEEDEDEEEYDEDAQVVEDEEDEDEEEEGEEEDVSGEEEEDEEGYNDGEVDDEEDEEELGEEERGQKRKREPEDEGEDDD [ANP32A]	0.466	-0.297	52.3	53.2	0.819	2.54
MEMPLPPDDQELRNVIDKLAQFVARNGPEFEKMTMEKQKDNPKFSFLFGGEFYSYYKCKLALEQQQLICKQQTPELEPAATMPPLPQPPLAPAAPIPPAQGAPSMDELIQQSQWNLQQQEQHLLALRQEQVTAAVAHAVEQQMQKLLEETQLDMNEFDNLLQPIIDTCTKDAISAGKNWMFSNAKSPPHCELMAGHLRNRITADGAHFELRLHLIYLINDVLHHCQRKQARELLAALQKVVVPIYCTSFLAVEEDKQQKIARLLQLWEKNGYFDDSIIQQLQSPALGLGQYQATLINEYSSVVQPVQLAFQQQIQTLKTQHEEFVTSLAQQQQQQQQQQQQLQMPQMEAEVKATPPPPAPPPAPAPAPAIPPTTQPDDSKPPIQMPGSSEYEAPGGVQDPAAAGPRGPGPHDQIPPNKPPWFDQPHPVAPWGQQQPPEQPPYPHHQGGPPHCPPWNNSHEGMWGEQRGDPGWNGQRDAPWNNQPDAAWNSQFEGPWNSQHEQPPWGGGQREPPFRMQRPPHFRGPFPPHQQHPQFNQPPHPHNFNRFPPRFMQDDFPPRHPFERPPYPHRFDYPQGDFPAEMGPPHHHPGHRMPHPGINEHPPWAGPQHPDFGPPPHGFNGQPPHMRRQGPPHINHDDPSLVPNVPYFDLPAGLMAPLVKLEDHEYKPLDPKDIRLPPPMPPSERLLAAVEAFYSPPSHDRPRNSEGWEQNGLYEFFRAKMRARRRKGQEKRNSGPSRSRSRSKSRGRSSSRSNSRSSKSSGSYSRSRSRSCSRSYSRSRSRSRSRSRSSRSRSRSQSRSRSKSYSPGRRRRSRSRSPTPPSSAGLGSNSAPPIPDSRLGEENKGHQMLVKMGWSGSGGLGAKEQGIQDPIKGGDVRDKWDQYKGVGVALDDPYENYRRNKSYSFIARMKARDECK [CHERP]	0.513	-0.174	47.6	49.2	1.81	4.57
MENAHTKTVEEVLGHFGVNESTGLSLEQVKKLKERWGSNELPAEEGKTLLELVIEQFEDLLVRILLLAACISFVLAWFEEGEETITAFVEPFVILLILVANAIVGVWQERNAENAIEALKEYEPEMGKVYRQDRKSVQRIKAKDIVPGDIVEIAVGDKVPADIRLTSIKSTTLRVDQSILTGESVSVIKHTDPVPDPRAVNQDKKNMLFSGTNIAAGKAMGVVVATGVNTEIGKIRDEMVATEQERTPLQQKLDEFGEQLSKVISLICIAVWIINIGHFNDPVHGGSWIRGAIYYFKIAVALAVAAIPEGLPAVITTCLALGTRRMAKKNAIVRSLPSVETLGCTSVICSDKTGTLTTNQMSVCRMFILDRVEGDTCSLNEFTITGSTYAPIGEVHKDDKPVNCHQYDGLVELATICALCNDSALDYNEAKGVYEKVGEATETALTCLVEKMNVFDTELKGLSKIERANACNSVIKQLMKKEFTLEFSRDRKSMSVYCTPNKPSRTSMSKMFVKGAPEGVIDRCTHIRVGSTKVPMTSGVKQKIMSVIREWGSGSDTLRCLALATHDNPLRREEMHLEDSANFIKYETNLTFVGCVGMLDPPRIEVASSVKLCRQAGIRVIMITGDNKGTAVAICRRIGIFGQDEDVTSKAFTGREFDELNPSAQRDACLNARCFARVEPSHKSKIVEFLQSFDEITAMTGDGVNDAPALKKAEIGIAMGSGTAVAKTASEMVLADDNFSTIVAAVEEGRAIYNNMKQFIRYLISSNVGEVVCIFLTAALGFPEALIPVQLLWVNLVTDGLPATALGFNPPDLDIMNKPPRNPKEPLISGWLFFRYLAIGCYVGAATVGAAAWWFIAADGGPRVSFYQLSHFLQCKEDNPDFEGVDCAIFESPYPMTMALSVLVTIEMCNALNSLSENQSLLRMPPWENIWLVGSICLSMSLHFLILYVEPLPLIFQITPLNVTQWLMVLKISLPVILMDETLKFVARNYLEPGKECVQPATKSCSFSACTDGISWPFVLLIMPLVIWVYSTDTNFSDMFWS [ATP2A2]	-0.116	-0.104	51.8	51.8	3.11	3.97
MENKSLESSQTDLKLVAHPRAKSKVWKYFGFDTNAEGCILQWKKIYCRICMAQIAYSGNTSNLSYHLEKNHPEEFCEFVKSNTEQMREAFATAFSKLKPESSQQPGQDALAVKAGHGYDSKKQQELTAAVLGLICEGLYPASIVDEPTFKVLLKTADPRYELPSRKYISTKAIPEKYGAVREVILKELAEATWCGISTDMWRSENQNRAYVTLAAHFLGLGAPNCLSMGSRCLKTFEVPEENTAETITRVLYEVFIEWGISAKVFGATTNYGKDIVKACSLLDVAVHMPCLGHTFNAGIQQAFQLPKLGALLSRCRKLVEYFQQSAVAMYMLYEKQKQQNVAHCMLVSNRVSWWGSTLAMLQRLKEQQFVIAGVLVEDSNNHHLMLEASEWATIEGLVELLQPFKQVAEMLSASRYPTISMVKPLLHMLLNTTLNIKETDSKELSMAKEVIAKELSKTYQETPEIDMFLNVATFLDPRYKRLPFLSAFERQQVENRVVEEAKGLLDKVKDGGYRPAEDKIFPVPEEPPVKKLMRTSTPPPASVINNMLAEIFCQTGGVEDQEEWHAQVVEELSNFKSQKVLGLNEDPLKWWSDRLALFPLLPKVLQKYWCVTATRVAPERLFGSAANVVSAKRNRLAPAHVDEQVFLYENARSGAEAEPEDQDEGEWGLDQEQVFSLGDGVSGGFFGIRDSSFL [ZBED1]	-0.112	0.0447	49.7	49.6	0.506	0.95
MENLKHIITLGQVIHKRCEEMKYCKKQCRRLGHRVLGLIKPLEMLQDQGKRSVPSEKLTTAMNRFKAALEEANGEIEKFSNRSNICRFLTASQDKILFKDVNRKLSDVWKELSLLLQVEQRMPVSPISQGASWAQEDQQDADEDRRAFQMLRRDNEKIEASLRRLEINMKEIKETLRQYLPPKCMQEIPQEQIKEIKKEQLSGSPWILLRENEVSTLYKGEYHRAPVAIKVFKKLQAGSIAIVRQTFNKEIKTMKKFESPNILRIFGICIDETVTPPQFSIVMEYCELGTLRELLDREKDLTLGKRMVLVLGAARGLYRLHHSEAPELHGKIRSSNFLVTQGYQVKLAGFELRKTQTSMSLGTTREKTDRVKSTAYLSPQELEDVFYQYDVKSEIYSFGIVLWEIATGDIPFQGCNSEKIRKLVAVKRQQEPLGEDCPSELREIIDECRAHDPSVRPSVDEILKKLSTFSK [MLKL]	-0.0647	0.126	49.6	50	-0.232	0.87
